Data from patent publication US20260053903A1.

Target: dendritic cell-specific intercellular adhesion molecule-3-grabbing nonintegrin (DC-SIGN) (UniProt Q9NNX6)
Assay: cell-based or functional assay

UniProt Q9NNX6, sequence (Q9NNX6 whole entry): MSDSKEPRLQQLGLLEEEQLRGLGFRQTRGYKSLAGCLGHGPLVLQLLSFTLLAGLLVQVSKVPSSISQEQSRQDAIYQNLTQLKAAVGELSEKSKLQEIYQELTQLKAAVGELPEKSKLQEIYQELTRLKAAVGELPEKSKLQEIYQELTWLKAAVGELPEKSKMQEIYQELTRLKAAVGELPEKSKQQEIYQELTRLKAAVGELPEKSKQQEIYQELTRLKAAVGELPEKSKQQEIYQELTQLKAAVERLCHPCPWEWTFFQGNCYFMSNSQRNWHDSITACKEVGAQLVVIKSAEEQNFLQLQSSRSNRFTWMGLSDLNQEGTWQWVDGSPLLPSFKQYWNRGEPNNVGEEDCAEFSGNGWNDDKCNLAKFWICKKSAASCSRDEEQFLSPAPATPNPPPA

In the case of “Man-OvaI/II (combination of particles PP7-Man900-OvaI100 and PP7-Man900-OvaII100) (from UniProt P03630 2-127)”, the uptake of fluorophore-labeled VLPs by moDCs over 30 min (flow cytometry) (fold against PE-OvaI/II) is reported as 5.
